In test [1] the target is Tenascin-C (TNC), recombinant full length. Description: SPR (Biacore 2000), TNC immobilised on CM5 chip, 1:1 Langmuir model. On the technique in general: In SPR one partner is held on a chip, and binding of the other changes the refractive index at the surface.
Test [2] concerns the target Tenascin-C (TNC) expressed by the NT193M tumor cell (mouse) (UniProt Q80YX1). Description: cell-based or functional assay.
The target in test [3] is fibronectin type III domains 1-5 of human tenascin-C (human) (UniProt P24821). Description: ELISA, TN1-5 coated, biotinylated FN12-14 titrated 1 nM to 1 µM. (An ELISA detects its analyte on a solid surface through an enzyme-linked reagent.)
Sequence of fibronectin type III domains 1-5 of human tenascin-C (human) (P24821 625-1075, form in doubt): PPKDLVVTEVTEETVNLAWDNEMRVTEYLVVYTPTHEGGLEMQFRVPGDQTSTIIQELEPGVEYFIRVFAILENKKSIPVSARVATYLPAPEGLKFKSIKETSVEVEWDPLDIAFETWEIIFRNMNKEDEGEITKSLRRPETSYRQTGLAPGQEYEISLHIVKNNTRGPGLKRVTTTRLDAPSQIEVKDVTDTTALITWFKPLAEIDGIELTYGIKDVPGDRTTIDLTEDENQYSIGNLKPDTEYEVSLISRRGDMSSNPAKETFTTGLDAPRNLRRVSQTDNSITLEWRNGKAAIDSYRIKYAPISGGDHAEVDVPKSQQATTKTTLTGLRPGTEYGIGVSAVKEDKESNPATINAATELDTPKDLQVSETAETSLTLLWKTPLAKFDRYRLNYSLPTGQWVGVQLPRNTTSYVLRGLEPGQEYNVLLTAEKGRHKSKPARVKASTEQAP

Sequence of Tenascin-C (TNC) expressed by the NT193M tumor cell (mouse) (Q80YX1 23-2110 limits assumed): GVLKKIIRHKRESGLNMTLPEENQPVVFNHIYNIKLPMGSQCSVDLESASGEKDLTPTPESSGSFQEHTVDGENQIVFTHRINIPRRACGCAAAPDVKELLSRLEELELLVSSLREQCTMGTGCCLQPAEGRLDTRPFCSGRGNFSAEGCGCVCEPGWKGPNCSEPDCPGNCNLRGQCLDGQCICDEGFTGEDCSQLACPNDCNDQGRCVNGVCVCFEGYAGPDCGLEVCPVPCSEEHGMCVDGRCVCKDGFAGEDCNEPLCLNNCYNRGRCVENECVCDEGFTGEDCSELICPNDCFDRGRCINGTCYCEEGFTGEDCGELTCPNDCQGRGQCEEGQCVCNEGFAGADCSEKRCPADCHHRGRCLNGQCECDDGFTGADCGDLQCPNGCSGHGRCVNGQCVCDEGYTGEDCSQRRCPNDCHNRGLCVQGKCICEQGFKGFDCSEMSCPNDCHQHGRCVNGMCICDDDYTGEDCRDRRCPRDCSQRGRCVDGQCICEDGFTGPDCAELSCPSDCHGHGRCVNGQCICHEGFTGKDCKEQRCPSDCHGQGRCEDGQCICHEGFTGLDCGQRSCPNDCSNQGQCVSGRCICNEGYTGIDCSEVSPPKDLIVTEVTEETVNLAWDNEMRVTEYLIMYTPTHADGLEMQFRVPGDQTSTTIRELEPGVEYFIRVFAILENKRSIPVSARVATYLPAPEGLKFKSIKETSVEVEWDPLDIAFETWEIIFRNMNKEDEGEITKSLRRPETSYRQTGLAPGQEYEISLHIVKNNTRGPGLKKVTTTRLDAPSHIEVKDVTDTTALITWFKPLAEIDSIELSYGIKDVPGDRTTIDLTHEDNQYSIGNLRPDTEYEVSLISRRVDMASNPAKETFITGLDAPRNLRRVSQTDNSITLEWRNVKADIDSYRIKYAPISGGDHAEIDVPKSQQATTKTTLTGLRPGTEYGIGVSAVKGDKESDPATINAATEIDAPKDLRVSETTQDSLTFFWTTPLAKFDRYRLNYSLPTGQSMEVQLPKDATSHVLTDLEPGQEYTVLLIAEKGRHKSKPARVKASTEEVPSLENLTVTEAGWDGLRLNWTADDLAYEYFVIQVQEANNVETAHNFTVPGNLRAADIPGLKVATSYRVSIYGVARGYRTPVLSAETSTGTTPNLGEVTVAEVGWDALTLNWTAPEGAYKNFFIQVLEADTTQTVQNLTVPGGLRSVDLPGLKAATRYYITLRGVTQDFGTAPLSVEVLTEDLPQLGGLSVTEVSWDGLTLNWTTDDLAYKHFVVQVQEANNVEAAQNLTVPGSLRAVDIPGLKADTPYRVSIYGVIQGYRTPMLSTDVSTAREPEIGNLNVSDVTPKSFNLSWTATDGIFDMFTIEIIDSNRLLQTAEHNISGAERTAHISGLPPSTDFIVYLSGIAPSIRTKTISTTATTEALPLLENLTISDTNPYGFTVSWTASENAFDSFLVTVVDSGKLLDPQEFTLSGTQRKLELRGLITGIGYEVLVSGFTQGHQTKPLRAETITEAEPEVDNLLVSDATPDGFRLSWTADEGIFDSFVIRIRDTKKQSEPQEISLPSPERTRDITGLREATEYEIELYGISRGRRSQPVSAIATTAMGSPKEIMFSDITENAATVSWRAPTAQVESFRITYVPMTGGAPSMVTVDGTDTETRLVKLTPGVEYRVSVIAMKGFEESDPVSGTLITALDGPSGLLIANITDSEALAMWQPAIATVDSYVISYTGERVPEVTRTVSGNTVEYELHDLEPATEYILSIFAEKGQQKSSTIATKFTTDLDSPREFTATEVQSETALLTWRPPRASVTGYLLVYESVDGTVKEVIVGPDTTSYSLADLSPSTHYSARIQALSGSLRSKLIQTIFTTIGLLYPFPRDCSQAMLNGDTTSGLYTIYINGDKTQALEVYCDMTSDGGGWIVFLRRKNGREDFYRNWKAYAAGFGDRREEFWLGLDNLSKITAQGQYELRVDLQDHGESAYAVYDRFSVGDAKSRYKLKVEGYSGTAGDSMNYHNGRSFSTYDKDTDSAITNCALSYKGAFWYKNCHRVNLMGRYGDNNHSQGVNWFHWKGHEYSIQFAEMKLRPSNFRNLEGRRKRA

What is called Kd is a measure of binding affinity in units of concentration. On to “CCL21 (R&D Systems 457-6C) (from UniProt P84444 24-133) (ligand)”, for which, in test [1], the Kd was 58 nM.
Same read-out and setting: next, “CXCL12 (R&D Systems 460-SD-050) (from UniProt P40224 22-89) (ligand)”: 790 nM.
In the case of “Mouse recombinant SU… (Enzo Lifesciences ALX-201-130-C020) (from UniProt P50592 99-291) (ligand)”, the Kd in test [1] came out at 2.8 nM. The same substance gave a TRAIL-induced killing of NT193M cells in test [2] of 5%.
On to “fibronectin type III domains 12-14 of human fibronectin (double Strep-tagged) (from UniProt P02751 1635-1908)”, for which the Kd in test [3] amounted to 52 nM.

(Values after patent publication EP3912994A1.)
